*1 amine or outer side, *2 acyl side, *3 side chain or, on linkers, in order; H or OH if unused. Bridges are numbered along the chain shown (N, C = ends). Where no end group is shown, it is not given here. TBMB = c1c(C[*:1])cc(C[*:3])cc1C[*:2]
Experiments:
[1] = molecular target: T1, human carbonic anhydrase IX (CAIX) (human, UniProt Q16790 38-414); test: competition fluorescence polarisation, tracer A-(SEQ ID NO:1)-A-Sar6-K(FI)
[2] = molecular target: T1, human carbonic anhydrase IX (CAIX); test: competition fluorescence polarisation, tracer A-(SEQ ID NO:1)-A-Sar6-K(FI); n = 1
[3] = molecular target: T1, human carbonic anhydrase IX (CAIX); test: cell-based or functional assay

ACSECWVDGWVSCA (linker 2-5-13 via TBMB, Bicyclic peptide on TBMB scaffold) [61-01-03-N001] was tested, and the Ki [1] was 22.7 nM.

Work on ACGECWVDGWVSCA (linker 2-5-13 via TBMB, Bicyclic peptide on TBMB scaffold) [61-01-09-N001] yielded a Ki [2] of 39.8 nM.

With ACWWCEDITGRPCA (linker 2-5-13 via TBMB, Bicyclic peptide on TBMB scaffold) [61-18-N001] the Ki [2] was 312 nM.

ACTECWVDGWVPCA (linker 2-5-13 via TBMB, Bicyclic peptide on TBMB scaffold) [61-01-02-N001] was tested, and the “Enzyme IC50” value [3] was 815 nM and the Ki [1] was 7.13 nM.

In the case of ACTECWIDGWVPCA (linker 2-5-13 via TBMB, Bicyclic peptide on TBMB scaffold) [61-01-07-N001], the Ki [1] is reported as 7.9 nM.

ACEECWVDGWVPCA (linker 2-5-13 via TBMB, Bicyclic peptide on TBMB scaffold) [61-01-05-N001] showed a Ki [2] of 12.2 nM.

ACLECWVDGWVPCA (linker 2-5-13 via TBMB, Bicyclic peptide on TBMB scaffold) [61-01-04-N001] was tested, and the “Enzyme IC50” value [3] was 855 nM and the Ki [1] was 5.77 nM.

Work on ACGECWADGWVPCA (linker 2-5-13 via TBMB, Bicyclic peptide on TBMB scaffold) [61-01-01-N001] yielded a Ki [1] of 81.5 nM.

Binder ACRECWVDGWVECA (linker 2-5-13 via TBMB, Bicyclic peptide on TBMB scaffold) [61-01-08-N001] has a Ki [2] of 5.6 nM.
